Experimental data as given in US9228015B2, “Nogo receptor antagonists and methods of increasing neurite outgrowth” (Biogen Idec MA Inc., priority 2006, dated 2016).

Tests used:
[1] = test system: NogoA, NogoB, NogoC, MAG and OM-gp binding to Nogo receptor-1; experiment: Soluble Nogo receptors block ligand binding to Nogo receptor-1
[2] = test system: DRG neurons, myelin-mediated inhibition of neurite outgrowth; experiment: Neurite outgrowth assay, P3-4 rat DRG neurons, myelin mixed with test protein (Example 10); type: cell-based; conditions: mixed with CNS myelin, FIGS. 9-11
Protocol: Lab-Tek® culture slides (4 wells) were coated with 0.1 mg/ml poly-D-lysine (Sigma®). CNS myelin alone or mixed with sNogoR310, sNogoR310-Fc fusion protein, mAb 5B10 or control PBS were separately spotted as 3 μl drops. Fluorescent microspheres (Polysciences) were added to the myelin/PBS to allow later identification of the drops (Grandpre et al., Nature 403:439-444 (2000)). Lab-Tek® slides were then rinsed and coated with 10 μg/ml laminin (Gibco™).
Dorsal root ganglions (DRG's) from P3-4 Sprague Dawley rat pups were dissociated with 1 mg/ml collagenase type 1 (Worthington), triturated with fire-polished Pasteur pipettes pre-plated to enrich in neuronal cells and finally plated at 23,000 cells/well on the pre-coated Labtek culture slides. The culture medium was F12 containing 5% heat inactivated donor horse serum, 5% heat inactivated fetal bovine serum and 50 ng/ml mNGF and incubated at 37° C. and 5% CO2 for 6 hours.
Slides were fixed for 20 minutes with 4% paraformaldehyde containing 20% sucrose and stained for the neuronal marker anti beta-III-tubulin (Covance TUJ1) diluted 1:500. As secondary antibody anti-mouse Alexa Fluor® 594 (Molecular Probes) was diluted 1:300 and slides were coverslipped with Gel/Mount™ (Biømeda™). 5× digital images were acquired with OpenLab™ software and analyzed by using the MetaMorph® software for quantification of neurite outgrowth.

chick neurons = experiment: Neurite outgrowth assay using chick neurons; type: cell-based
[3] = test system: mice with dorsal over-hemisection injury; experiment: gfap::sNogoR310 transgenic mice, dorsal over-hemisection: axon tracing and serotonin fiber analysis; type: in vivo, mouse
Text: We cloned the mouse sNogoR310 cDNA (corresponding to amino acids 1-310 of the Nogo receptor-1) into the Nod site of the C-3123 vector. In this vector, sNogoR310 expression is under the control of the glial fibrillary acidic protein (gfap) gene regulatory elements, which allow high level expression with enhanced secretion from reactive astrocytes at site of injury. We digested the resulting vector sequentially with AatII and SfiI and isolated the gfap::sNogoR310 construct on a 3.4 kb fragment. We microinjected this fragment into embryos to generate transgenic mice. We verified by PCR that the transgene had integrated and identified five founder lines. We crossed heterozygous males of the two founder lines with the highest expression levels to female C57BL/6J mice. We confirmed that the GFAP-positive cells express and secrete sNogoR310 in heterozygous transgenic mice by Western blot analysis using antibody raised against Nogo receptor-1.
We deeply anesthetized adult female heterozygous transgenic or littermate WT mice (10-16 weeks of age) and performed a complete laminectomy, fully exposing the dorsal part of spinal cord at T6 and T7 levels. We performed a dorsal over-hemisection at T6 with a 30-gauge needle and a pair of microscissors to completely sever the dorsal and dorsolateral corticospinal tracts (CSTs). We passed a marked needle across the dorsal part of the spinal cord several times to assure that the lesion was at a depth of 1.0 mm. We sutured the muscle layers over the laminectomies and closed the skin on the back with surgical staples. To trace the corticospinal tracts, we made a burr hole overlying cerebral cortex on the right side into the skull 14 days after spinal cord injury. We applied the tracer BDA (MW 10,000, 10% in PBS) (Molecular Probes, Eugene, Oreg.) to 4 injection sites at a depth of 0.7 mm from the cortical surface, Four weeks after injury, the mice were perfused transcardially with PBS, followed by 4% paraformaldehyde.
We investigated the integrity of descending corticospinal tracts (CST) by injecting anterograde tracer biotin dextran amine (BDA) into the right motor cortex as described in Li and Strittmatter, J. Neurosci. 23:4219-27 (2003). In littermate WT mice, the prominent dorsal CST (dCST) is tightly bundled rostral to the lesion, and a few dorsolateral CST fibers are visible ipsilaterally. A small number of BDA-labeled short collateral sprouts project into gray matter, particularly in the ventral cord, but the sprouting is largely confined to the side of the cord contralateral to the tracer injection. However, the sections rostral to dorsal hemisection from injured sNogoR310 transgenic mice indicate a quite different BDA labeling pattern. A high density of BDA-labeled CST fibers are observed outside of prominent dCST in all the transgenic mice from line Tg08 or line Tg01. Ectopic fibers extend throughout the gray matter area, and some fibers reach into lateral and dorsolateral white matter. Several fibers (4-12 sprouts per transverse section) are seen on the opposite side of the spinal cord (ipsilateral to the tracer injection site). Micro densitometric measurement of the collateral sprouts indicates approximately a tenfold increase in sprouting density in sNogoR310 transgenic mice. […]

[4] = test system: mice with dorsal over-hemisection injury; experiment: gfap::sNogoR310 transgenic mice, dorsal over-hemisection: behavioral tests; type: in vivo, mouse
Text: The Basso-Beattie-Bresnahan (BBB) locomotor rating scale (Basso et al., Neurotrauma 13:343-359 (1996)), the inclined plane test and the inclined grid walking test (Li and Strittmatter, J Neurosci. 23:4219-27 (2003)) were monitored in rats and mice after injury. For the inclined plane test, we measured the maximal angle to which a 50 cm×60 cm board could be angled for 5 sec without the mouse sliding off. For inclined grid walking, the mice were trained to climb a wire grid (35 cm long with 2.54 cm squares) at a slope of 45 degrees. The number of instances in which the hindpaw dropped below the grid plane was scored for each excursion from bottom to top. For the rat behavioral testing, BBB locomotor scale, grid walking and footprint analysis were performed. For grid walking, the rats were trained to walk on a wire grid (70 cm long with 2.54 an squares), and the number of instances in which the hindpaw dropped below the grid plane was counted. For footprint analysis, the walking patterns of rat hindpaws were recorded with ink during a continuous locomotion across a 90 cm runway, and stride length on each side and stride width were calculated (Metz et al., Brain Res. 883:165-177 (2000)). All of these behavioral tests were performed by at least two individuals. Throughout the surgery, behavioral testing and histologic analysis, researchers were blind to the identity of the compound in the minipump.
We deeply anesthetized adult female heterozygous transgenic or littermate WT mice (10-16 weeks of age) and performed a complete laminectomy, fully exposing the dorsal part of spinal cord at T6 and T7 levels. We performed a dorsal over-hemisection at T6 with a 30-gauge needle and a pair of microscissors to completely sever the dorsal and dorsolateral corticospinal tracts (CSTs). We passed a marked needle across the dorsal part of the spinal cord several times to assure that the lesion was at a depth of 1.0 mm. We sutured the muscle layers over the laminectomies and closed the skin on the back with surgical staples. […]

P6 DRG neurons = experiment: Neuro-protection assay, P6-7 rat DRG neurons with or without laminin; type: cell-based
Protocol: We also tested the neuro-protective effect of soluble Nogo receptors by performing experiments with cells grown in the presence and absence of laminin. Neuronal cell growth in media without laminin is poor and models neuronal stress conditions.
DRG's were dissected from post-natal day 6-7 rat pups (P6-7), dissociated into single cells and plated on 96-well plates pre-coated with poly-D-lysine as described above. In some wells 2 μg/ml laminin was added for 2-3 hours and rinsed before the cells were plated. After an 18-20 h incubation the plates were fixed with 4% para-formaldehyde, stained with rabbit anti-Beta-III-tubulin antibody diluted 1:500 (Covance®) and anti-HuC/D diluted 1:100 (Molecular Probes), and fluorescent secondary antibodies (Molecular Probes) were added at 1:200 dilution. The ArrayScan® II (Cellomics®) was used to capture 5× digital images and to quantify neurite outgrowth as average neurite outgrowth/neuron per well, by using the Neurite outgrowth application. Nine 5× images from 3 wells/condition were analyzed.
(§1) sNogoR344-Fc or rat IgG were added in solution to P6-7 DRG neurons and to differentiated Neuroscreen™ cells at the time of plating.

[5] = test system: Neuroscreen cells (sub-clone of PC12 cells); experiment: Neuro-protection assay, differentiated Neuroscreen cells with or without laminin; type: cell-based; conditions: same concentrations, absence of laminin
Protocol: In some experiments, a sub-clone of PC12 cells (Neuroscreen™) was used (Cellomics®). The Neuroscreen™ cells were pre-differentiated for 7 days with 200 ng/ml NGF, detached and replated on 96-well plates pre-coated with poly-D-lysine. In some wells 5 μg/ml laminin was added for 2-3 hours and rinsed before the cells were plated. After 2 days incubation the plates were fixed with 4% paraformaldehyde, stained with rabbit anti-Beta-III-tubulin antibody diluted 1:500 (Covance®) and Hoechst (nuclear stain). The ArrayScan® II was used to quantify neurite outgrowth as in the DRG cells.
as §1

B1: sNogoR310: soluble Nogo receptor-1 polypeptide, residues 26-310 of SEQ ID NOs: 7 and 9 or 27-310 of SEQ ID NO: 9; mouse form in transgenic mice (protein, listed as Homo sapiens)
chain: PCPGACVCYNEPKVTTSCPQQGLQAVPVGIPAASQRIFLHGNRISHVPAASFRACRNLTILWLHSNVLARIDAAAFTGLALLEQLDLSDNAQLRSVDPATFHGLGRLHTLHLDRCGLQELGPGLFRGLAALQYLYLQDNALQALPDDTFRDLGNLTHLFLHGNRISSVPERAFRGLHSLDRLLLHQNRVAHVHPHAFRDLGRLMTLYLFANNLSALPTEALAPLRALQYLRLNDNPWVCDCRARPLWAWLQKFRGSSSEVPCSLPQRLAGRDLKRLAANDLQGCA
- block of binding of NogoA, NogoB, NogoC, MAG and OM-gp to Nogo receptor-1 [1]: block
- protection of DRG neurons from myelin-mediated inhibition of neurite outgrowth [2]: protected
- protection in similar assay using chick neurons (chick neurons): protective
- BDA-labeled regenerating fibers coursing in the rostral-caudal axis ([3]; any level 1-4 mm caudal to the lesion, each transgenic mouse): 5-15
- fibers on the opposite side of the spinal cord (ipsilateral to the tracer injection site) ([3]; rostral to dorsal hemisection, transgenic mice): 4-12 sprouts per transverse section
- CST sprouting ([3]; secreted from astrocytes in transgenic mice): induces CST sprouting
- total length of serotonin fibers in the ventral horn of caudal spinal cord ([3]; transgenic vs WT group): much greater number
- increase in collateral sprouting density (micro densitometric measurement) ([3]; transgenic vs WT mice): tenfold
- sustainable angle on inclined plane ([4]; days 7-28 after injury vs control): significantly greater
- BBB scores ([4]; lines Tg08 and Tg01 vs control, 7-28 days): significantly higher
- inclined grid climbing errors ([4]; post-injury, FIG. 13D): progressive improvement

B2: sNogoR344-Fc: fusion protein of residues 26-344 of rat Nogo receptor-1 and hinge and Fc region of rat IgG1 (protein)
chain: PCPGACVCYNEPKVTTSRPQQGLQAVPAGIPASSQRIFLHGNRISYVPAASFQSCRNLTILWLHSNALAGIDAAAFTGLTLLEQLDLSDNAQLRVVDPTTFRGLGHLHTLHLDRCGLQELGPGLFRGLAALQYLYLQDNNLQALPDNTFRDLGNLTHLFLHGNRIPSVPEHAFRGLHSLDRLLLHQNHVARVHPHAFRDLGRLMTLYLFANNLSMLPAEVLVPLRSLQYLRLNDNPWVCDCRARPLWAWLQKFRGSSSGVPSNLPQRLAGRDLKRLATSDLEGCAVASGPFRPFQTNQLTDEELLGLPKCCQPDAADKA
modifications: left off: a dimerising Fc or GST
notes: fusion protein of residues 26-344 of rat Nogo receptor-1 and hinge and Fc region of rat IgG1
- neuro-protective effect (P6 DRG neurons; 1 μM and 10 μM, absence of laminin): observed
- quantification of neurite outgrowth (P6 DRG neurons; absence of laminin): dose-dependent increase
- effect on DRG neurons growing on a laminin substrate (P6 DRG neurons; same concentrations, laminin substrate): did not produce any unusual effect
- neuro-protective effect [5]: seen
